± gives the standard deviation of the averaged measurements.
Test: total protein half-life in vivo (active degradation + dilution); higher = more stable protein
[1] = E. coli NCM3722 delta-clpP delta-lon delta-hslV, growth: N-lim chemostat, doubling time 6 h
[2] = E. coli NCM3722 delta-clpP, growth: N-lim chemostat, doubling time 6 h
[3] = E. coli NCM3722 delta-hslV, growth: N-lim chemostat, doubling time 6 h
[4] = E. coli NCM3722 delta-lon, growth: N-lim chemostat, doubling time 6 h
[5] = E. coli NCM3722 delta-smpB, growth: N-lim chemostat, doubling time 6 h
[6] = wild type E. coli NCM3722, growth: C-lim chemostat, doubling time 3 h
[7] = wild type E. coli NCM3722, growth: C-lim chemostat, doubling time 6 h
[8] = wild type E. coli NCM3722, growth: C-lim chemostat, doubling time 12 h
[9] = wild type E. coli NCM3722, growth: N-lim chemostat, doubling time 6 h
[10] = wild type E. coli NCM3722, growth: N-lim chemostat, doubling time 12 h
[11] = wild type E. coli NCM3722, growth: P-lim chemostat, doubling time 6 h
[12] = wild type E. coli NCM3722, growth: P-lim chemostat, doubling time 12 h

Sequence: MAQFYSAKRRTTTRQIITVSVNDLDSFGQGVARHNGKTLFIPGLLPQENAEVTVTEDKKQYARAKVVRRLSDSPERETPRCPHFGVCGGCQQQHASVDLQQRSKSAALARLMKHDVSEVIADVPWGYRRRARLSLNYLPKTQQLQMGFRKAGSSDIVDVKQCPILAPQLEALLPKVRACLGSLQAMRHLGHVELVQATSGTLMILRHTAPLSSADREKLERFSHSEGLDLYLAPDSEILETVSGEMPWYDSNGLRLTFSPRDFIQVNAGVNQKMVARALEWLDVQPEDRVLDLFCGMGNFTLPLATQAASVVGVEGVPALVEKGQQNARLNGLQNVTFYHENLEEDVTKQPWAKNGFDKVLLDPARAGAAGVMQQIIKLEPIRIVYVSCNPATLARDSEALLKAGYTIARLAMLDMFPHTGHLESMVLFSRVK
- total protein half-life in vivo [1]: 5.4 ± 0.1 h
- total protein half-life in vivo [2]: 5.11 ± 0.95 h
- total protein half-life in vivo [3]: 4.34 ± 0.43 h
- total protein half-life in vivo [4]: 4.54 ± 0.058 h
- total protein half-life in vivo [5]: 3.9767 ± 0.00076 h
- total protein half-life in vivo [6]: 2.96 ± 0.12 h
- total protein half-life in vivo [7]: 5.12 ± 0.17 h
- total protein half-life in vivo [8]: 9.07 ± 0.16 h
- total protein half-life in vivo [9]: 4.203 ± 0.032 h
- total protein half-life in vivo [10]: 6.93 ± 0.14 h
- total protein half-life in vivo [11]: 4.49 ± 1 h
- total protein half-life in vivo [12]: 10.7 ± 2.4 h

Sequence: MTSPNILLTRIDNRLVHGQVGVTWTSTIGANLLVVVDDVVANDDIQQKLMGITAETYGFGIRFFTIEKTINVIGKAAPHQKIFLICRTPQTVRKLVEGGIDLKDVNVGNMHFSEGKKQISSKVYVDDQDLTDLRFIKQRGVNVFIQDVPGDQKEQIPD
- total protein half-life in vivo [1]: 5.94 ± 1 h
- total protein half-life in vivo [2]: 3.82 ± 0.62 h
- total protein half-life in vivo [3]: 4.08 ± 0.26 h
- total protein half-life in vivo [5]: 4.01 ± 0.37 h
- total protein half-life in vivo [6]: 3.52 ± 0.3 h
- total protein half-life in vivo [7]: 5.07 ± 0.32 h
- total protein half-life in vivo [8]: 6.95 ± 0.34 h
- total protein half-life in vivo [9]: 3.67 h
- total protein half-life in vivo [10]: 6.28 ± 0.71 h
- total protein half-life in vivo [11]: 4.28 ± 1.7 h
- total protein half-life in vivo [12]: 11 ± 0.5 h

Sequence: MKRFSLAILALVVATGAQAASEKVEMNLVTSQGVGQSIGSVTITETDKGLEFSPDLKALPPGEHGFHIHAKGSCQPATKDGKASAAESAGGHLDPQNTGKHEGPEGAGHLGDLPALVVNNDGKATDAVIAPRLKSLDEIKDKALMVHVGGDNMSDQPKPLGGGGERYACGVIK [P0AGD1]
- total protein half-life in vivo [1]: 5.72 ± 1.6 h
- total protein half-life in vivo [2]: 6.84 ± 0.29 h
- total protein half-life in vivo [3]: 6.36 ± 0.53 h
- total protein half-life in vivo [4]: 6.86 ± 0.16 h
- total protein half-life in vivo [5]: 5.11 ± 0.17 h
- total protein half-life in vivo [6]: 2.81 ± 0.45 h
- total protein half-life in vivo [7]: 6.27 ± 0.81 h
- total protein half-life in vivo [8]: 10 ± 1.8 h
- total protein half-life in vivo [9]: 6.57 ± 0.63 h
- total protein half-life in vivo [10]: 11.8 ± 1.3 h
- total protein half-life in vivo [11]: 5.69 ± 0.66 h
- total protein half-life in vivo [12]: 11 ± 0.99 h

Sequence: MRHLRNIFNLGIKELRSLLGDKAMLTLIVFSFTVSVYSSATVTPGSLNLAPIAIADMDQSQLSNRIVNSFYRPWFLPPEMITADEMDAGLDAGRYTFAINIPPNFQRDVLAGRQPDIQVNVDATRMSQAFTGNGYIQNIINGEVNSFVARYRDNSEPLVSLETRMRFNPNLDPAWFGGVMAIINNITMLAIVLTGSALIREREHGTVEHLLVMPITPFEIMMAKIWSMGLVVLVVSGLSLVLMVKGVLGVPIEGSIPLFMLGVALSLFATTSIGIFMGTIARSMPQLGLLVILVLLPLQMLSGGSTPRESMPQMVQDIMLTMPTTHFVSLAQAILYRGAGFEIVWPQFLTLMAIGGAFFTIALLRFRKTIGTMA [P0AGH1]
- total protein half-life in vivo [3]: 7.18 ± 0.3 h
- total protein half-life in vivo [5]: 6.13 ± 0.76 h
- total protein half-life in vivo [6]: 3.9 h
- total protein half-life in vivo [7]: 7.01 h
- total protein half-life in vivo [8]: 12.2 h
- total protein half-life in vivo [9]: 5.76 ± 0.3 h
- total protein half-life in vivo [10]: 10.5 h
- total protein half-life in vivo [11]: 7.25 ± 0.75 h
- total protein half-life in vivo [12]: 11.7 ± 0.4 h

Sequence: MGSGWHEWPLMIFTVFGQCVAGGFIVLALALLKGDLRAEAQQRVIACMFGLWVLMGIGFIASMLHLGSPMRAFNSLNRVGASALSNEIASGSIFFAVGGIGWLLAMLKKLSPALRTLWLIVTMVLGVIFVWMMVRVYNSIDTVPTWYSIWTPMGFFLTMFMGGPLLGYLLLSLAGVDGWAMRLLPAISVLALVVSGVVSVMQGAELATIHSSVQQAAALVPDYGALMSWRIVLLAVALCLWIAPQLKGYQPAVPLLSVSFILLLAGELIGRGVFYGLHMTVGMAVAS
- total protein half-life in vivo [7]: 5.22 h
- total protein half-life in vivo [12]: 10.9 h

Sequence: MLKREMNIADYDAELWQAMEQEKVRQEEHIELIASENYTSPRVMQAQGSQLTNKYAEGYPGKRYYGGCEYVDIVEQLAIDRAKELFGADYANVQPHSGSQANFAVYTALLEPGDTVLGMNLAHGGHLTHGSPVNFSGKLYNIVPYGIDATGHIDYADLEKQAKEHKPKMIIGGFSAYSGVVDWAKMREIADSIGAYLFVDMAHVAGLVAAGVYPNPVPHAHVVTTTTHKTLAGPRGGLILAKGGSEELYKKLNSAVFPGGQGGPLMHVIAGKAVALKEAMEPEFKTYQQQVAKNAKAMVEVFLERGYKVVSGGTDNHLFLVDLVDKNLTGKEADAALGRANITVNKNSVPNDPKSPFVTSGIRVGTPAITRRGFKEAEAKELAGWMCDVLDSINDEAVIERIKGKVLDICARYPVYA [P0A825]
- total protein half-life in vivo [1]: 4.68 ± 1 h
- total protein half-life in vivo [2]: 3.83 ± 0.091 h
- total protein half-life in vivo [3]: 3.87 ± 0.15 h
- total protein half-life in vivo [4]: 4.35 ± 0.27 h
- total protein half-life in vivo [5]: 3.8 ± 0.26 h
- total protein half-life in vivo [6]: 3.22 ± 0.18 h
- total protein half-life in vivo [7]: 5.51 ± 0.18 h
- total protein half-life in vivo [8]: 10.7 ± 2.1 h
- total protein half-life in vivo [9]: 3.814 ± 0.011 h
- total protein half-life in vivo [10]: 5.98 ± 0.077 h
- total protein half-life in vivo [11]: 5.73 ± 0.5 h
- total protein half-life in vivo [12]: 11.3 ± 0.74 h
